In general, Kd refers to the concentration at which binding is half-saturated.

This test concerns the target Recombinant platelet-derived growth factor-BB (UniProt P01127). Description: SPR. In general terms: SPR reads the build-up and loss of mass on a sensor chip optically.
UniProt P01127, sequence (P01127 82-190): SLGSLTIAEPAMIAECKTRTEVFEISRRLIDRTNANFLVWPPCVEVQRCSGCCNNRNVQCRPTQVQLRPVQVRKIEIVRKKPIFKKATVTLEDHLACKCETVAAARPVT

On to “Recombinant fibronectin type III repeat 1 (domain or fragment)”, for which the Kd amounted to 103 nM.
As to “Recombinant fibronectin type III repeats 13–14 (domain or fragment)”, the Kd is 9 nM.
Consider “Recombinant fibronectin variable domain (domain or fragment)”, for which the Kd was 141 nM.
